Values quoted from earlier work, collected in publication PMC4223872.

Molecular target: Calmodulin C-lobe (Homo sapiens) (UniProt P0DP23)
Assay: ITC

Nav1.5 1489-1522, sequence (Q14524 1489-1522): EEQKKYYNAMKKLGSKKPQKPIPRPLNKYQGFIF

Nav1.5 1489-1522 (from UniProt Q14524)
Kd: 19 µM
